Laboratory results as given in paper PMC6287947.
One block for each molecule: values may come before it.

Tests used:
[1] = molecular target: taxol-stabilized MTs; assay: co-sedimentation; 6His-Prp31 (10 nM) or 6His-Sf3A2 (13 nM) with increasing amounts of taxol-stabilized MTs (0.25–2 μM of tubulin dimers in MT polymers), 25 mM NaCl, RT 30 min, 100,000 g 40 min; SDS-PAGE and Coomassie staining; three independent experiments
[2] = molecular target: taxol-stabilized MTs; assay: co-sedimentation; 6His-Prp31 (10 nM) or 6His-Sf3A2 (13 nM) incubated at RT for 30 min with 2 μM taxol-stabilized MTs (or 2 μM tubulin without Taxol), centrifuged at 100,000 g at RT for 40 min; supernatants and pellets by Western blotting

percent co-sedimented with MTs [1]: > 80%
percent co-sedimented with MTs [2]: > 80%
Molecule: 6His-Sf3A2 (from UniProt Q9VU15 1-264) (natural protein)

percent co-sedimented with MTs [1]: > 80%
percent co-sedimented with MTs [2]: > 80%
B1: 6His-Prp31 (natural protein)
chain: MSLADELLADLEEDNDNELEEEDSEMASAEDESLLAEKLAKPAPNLMDVDVTVQSVRELCKLRDSERLKNTLQQIEHYASRQRTAAEMLGSVESDPEYCLIVDANAIAVDIDNEISIVHKFTKEKYQKRFPELDSLIVGEIEYLLAVKELGNDLDQVKNNEKLQAILTQATIMIVSVTASTTQGTMLTPAEKAKIDEACEMAIELNNFKSKIYEYVESRMTFIAPNLSMIVGASTAAKLLGIAGGLSKLSKMPACNVQVLGAQKKTLSGFSQTQMLPHTGYVYYSQIVQDTAPDLRRKAARLVAAKSVLAARVDACHESVHGEIGLRFKEDVEKKLDKLQEPPPVKFIKPLPKPIEGSKKKRGGKRVRKMKERYALTEFRKQANRMNFGDIEEDAYQGDLGYSRGTIGKTGTGRIRLPQVDEKTKVRISKTLHKNLQKQQVYGGNTTVKRQISGTASSVAFTPLQGLEIVNPQAAERSQTEANAKYFSNTSGFMSVGQRTT
